Experiment [1] addresses T1, human GLP-1 receptor (human, UniProt P43220 24-463). The experiment is described as follows: cell-based or functional assay.
For experiment [2], the target named is T2, human glucagon receptor (human, UniProt P47871 26-477). The experiment can be described thus: cell-based or functional assay.
Experiment [3] has as its target T1, human GLP-1 receptor. The experiment is described as follows: displacement of 125I-GLP-1(7-36)NH2, membranes with human GLP-1R, SPA. On the procedure: The receptor binding of each compound to the human GLP-1 receptor was measured in a displacement binding assay. […] Each derivative was added in a series of concentrations to isolated membranes containing the human GLP-1 receptor and displacement of the labelled ligand was monitored. The receptor binding was reported as the concentration at which half of the labelled ligand was displaced from the receptor, the IC₅₀ value.

In experiment [4] the target is T2, human glucagon receptor. The experiment is described as follows: displacement of 125I-glucagon, membranes with human glucagon receptor, SPA. On the procedure:
The receptor binding of each compound to the human glucagon receptor was measured in a displacement binding assay. […] Each derivative was added in a series of concentrations to isolated membranes containing the human glucagon receptor and displacement of the labelled ligand is monitored. The receptor binding was reported as the concentration at which half of the labelled ligand is displaced from the receptor, the IC₅₀ value.

Numbered stars: 1 amine (or outer) side, 2 acyl side, 3 side chain; on linkers, the order of the positions; unused ones are H or OH. Square brackets hold non-standard residues; d marks the D form. Side chains are listed from the residue outwards. Ends that are not written are not given here. * marks the point of attachment. C18 diacid = O=C(O)CCCCCCCCCCCCCCCCC(=O)*; γGlu = O=C(O)[C@H](CCC(=O)[*:2])N[*:1]; AEEA = NCCOCCOCC(=O)O; Aib = CC(C)(N)C(=O)O

T2 sequence (P47871 26-477): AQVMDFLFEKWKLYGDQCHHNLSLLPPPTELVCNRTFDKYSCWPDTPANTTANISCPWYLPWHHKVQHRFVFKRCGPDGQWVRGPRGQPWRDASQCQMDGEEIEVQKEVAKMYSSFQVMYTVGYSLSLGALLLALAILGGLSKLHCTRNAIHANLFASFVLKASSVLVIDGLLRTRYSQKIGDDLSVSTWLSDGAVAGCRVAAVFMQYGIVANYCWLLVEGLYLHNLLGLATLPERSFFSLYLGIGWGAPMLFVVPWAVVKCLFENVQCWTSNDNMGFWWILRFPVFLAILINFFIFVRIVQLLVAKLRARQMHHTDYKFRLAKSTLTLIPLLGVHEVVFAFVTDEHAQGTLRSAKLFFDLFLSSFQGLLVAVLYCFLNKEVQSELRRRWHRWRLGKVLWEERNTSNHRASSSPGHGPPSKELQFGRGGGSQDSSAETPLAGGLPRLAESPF

B1: N^ε16-[(4S)-4-carboxy-4-[[2-[2-[2-[[2-[2-[2-[[(4S)-4-carboxy-4-[[(4S)-4-carboxy-4-(17-carboxyheptadecanoylamino)butanoyl]amino]butanoyl]amino]ethoxy]ethoxy]acet … (peptide)
peptide: H[Aib]HGTFTSDLSKYLEK([γGlu-AEEA-AEEA-γGlu-γGlu-C18 diacid])RRAREFVAWLLST-NH2
modifications: N-terminus assumed
SMILES: CC(C)C[C@H](NC(=O)[C@H](Cc1c[nH]c2ccccc12)NC(=O)[C@H](C)NC(=O)[C@@H](NC(=O)[C@H](Cc1ccccc1)NC(=O)[C@H](CCC(=O)O)NC(=O)[C@H](CCCNC(=N)N)NC(=O)[C@H](C)NC(=O)[C@H](CCCNC(=N)N)NC(=O)[C@H](CCCNC(=N)N)NC(=O)[C@H](CCCCNC(=O)CC[C@H](NC(=O)COCCOCCNC(=O)COCCOCCNC(=O)CC[C@H](NC(=O)CC[C@H](NC(=O)CCCCCCCCCCCCCCCCC(=O)O)C(=O)O)C(=O)O)C(=O)O)NC(=O)[C@H](CCC(=O)O)NC(=O)[C@H](CC(C)C)NC(=O)[C@H](Cc1ccc(O)cc1)NC(=O)[C@H](CCCCN)NC(=O)[C@H](CO)NC(=O)[C@H](CC(C)C)NC(=O)[C@H](CC(=O)O)NC(=O)[C@H](CO)NC(=O)[C@@H](NC(=O)[C@H](Cc1ccccc1)NC(=O)[C@@H](NC(=O)CNC(=O)[C@H](Cc1c[nH]cn1)NC(=O)C(C)(C)NC(=O)[C@@H](N)Cc1c[nH]cn1)[C@@H](C)O)[C@@H](C)O)C(C)C)C(=O)N[C@@H](CC(C)C)C(=O)N[C@@H](CO)C(=O)N[C@H](C(N)=O)[C@@H](C)O
Take B1: the “EC50 GLP-1R, CRE luciferase reporter gene assay in BHK cells” value (“EC50 GLP-1R” below) in experiment [1] stood at 0.0327 nM. Moreover, the “EC50 GlucR, CRE luciferase reporter gene assay in BHK cells” value (shortened to “EC50 GlucR”) in experiment [2] was 0.0068 nM. Further, the figures for the IC50 in experiment [3] and in experiment [4] were 3.9 nM and 1.9 nM, respectively.

B2: N^ε16-[(4S)-4-carboxy-4-[[(4S)-4-carboxy-4-[[2-[2-[2-[[2-[2-[2-[[(4S)-4-carboxy-4-(17-carboxyheptadecanoylamino)butanoyl]amino]ethoxy]ethoxy]acetyl]amino]ethoxy … (peptide)
peptide: H[Aib]QGTFTSDLSKYLDK([γGlu-γGlu-AEEA-AEEA-γGlu-C18 diacid])RRAREFVQWLLNT-NH2
modifications: N-terminus assumed
SMILES: CC(C)C[C@H](NC(=O)[C@H](Cc1ccc(O)cc1)NC(=O)[C@H](CCCCN)NC(=O)[C@H](CO)NC(=O)[C@H](CC(C)C)NC(=O)[C@H](CC(=O)O)NC(=O)[C@H](CO)NC(=O)[C@@H](NC(=O)[C@H](Cc1ccccc1)NC(=O)[C@@H](NC(=O)CNC(=O)[C@H](CCC(N)=O)NC(=O)C(C)(C)NC(=O)[C@@H](N)Cc1c[nH]cn1)[C@@H](C)O)[C@@H](C)O)C(=O)N[C@@H](CC(=O)O)C(=O)N[C@@H](CCCCNC(=O)CC[C@H](NC(=O)CC[C@H](NC(=O)COCCOCCNC(=O)COCCOCCNC(=O)CC[C@H](NC(=O)CCCCCCCCCCCCCCCCC(=O)O)C(=O)O)C(=O)O)C(=O)O)C(=O)N[C@@H](CCCNC(=N)N)C(=O)N[C@@H](CCCNC(=N)N)C(=O)N[C@@H](C)C(=O)N[C@@H](CCCNC(=N)N)C(=O)N[C@@H](CCC(=O)O)C(=O)N[C@@H](Cc1ccccc1)C(=O)N[C@H](C(=O)N[C@@H](CCC(N)=O)C(=O)N[C@@H](Cc1c[nH]c2ccccc12)C(=O)N[C@@H](CC(C)C)C(=O)N[C@@H](CC(C)C)C(=O)N[C@@H](CC(N)=O)C(=O)N[C@H](C(N)=O)[C@@H](C)O)C(C)C
On to B2, for which the “EC50 GLP-1R” value in experiment [1] was determined as 0.0092 nM. For the same molecule, the “EC50 GlucR” value in experiment [2] worked out at 0.0423 nM. Besides, the IC50 in experiment [3] came to 0.5 nM; in experiment [4] it was 1.2 nM.

B3: N^ε28-[2-[2-[2-[[2-[2-[2-[[(4S)-4-carboxy-4-[[(4S)-4-carboxy-4-[[(4S)-4-carboxy-4-(17-carboxyheptadecanoylamino)butanoyl]amino]butanoyl]amino]butanoyl]amino]eth … (peptide)
peptide: H[Aib]QGTFTSDLSKYLESRRARDFVQWLLK([AEEA-AEEA-γGlu-γGlu-γGlu-C18 diacid])T-NH2
modifications: N-terminus assumed
SMILES: CC(C)C[C@H](NC(=O)[C@H](Cc1ccc(O)cc1)NC(=O)[C@H](CCCCN)NC(=O)[C@H](CO)NC(=O)[C@H](CC(C)C)NC(=O)[C@H](CC(=O)O)NC(=O)[C@H](CO)NC(=O)[C@@H](NC(=O)[C@H](Cc1ccccc1)NC(=O)[C@@H](NC(=O)CNC(=O)[C@H](CCC(N)=O)NC(=O)C(C)(C)NC(=O)[C@@H](N)Cc1c[nH]cn1)[C@@H](C)O)[C@@H](C)O)C(=O)N[C@@H](CCC(=O)O)C(=O)N[C@@H](CO)C(=O)N[C@@H](CCCNC(=N)N)C(=O)N[C@@H](CCCNC(=N)N)C(=O)N[C@@H](C)C(=O)N[C@@H](CCCNC(=N)N)C(=O)N[C@@H](CC(=O)O)C(=O)N[C@@H](Cc1ccccc1)C(=O)N[C@H](C(=O)N[C@@H](CCC(N)=O)C(=O)N[C@@H](Cc1c[nH]c2ccccc12)C(=O)N[C@@H](CC(C)C)C(=O)N[C@@H](CC(C)C)C(=O)N[C@@H](CCCCNC(=O)COCCOCCNC(=O)COCCOCCNC(=O)CC[C@H](NC(=O)CC[C@H](NC(=O)CC[C@H](NC(=O)CCCCCCCCCCCCCCCCC(=O)O)C(=O)O)C(=O)O)C(=O)O)C(=O)N[C@H](C(N)=O)[C@@H](C)O)C(C)C
With B3, the “EC50 GLP-1R” value in experiment [1] turned out to be 0.003 nM. Moreover, the “EC50 GlucR” value in experiment [2] is 0.129 nM. Also, the IC50 in experiment [3] was found to be 0.2 nM; in experiment [4], 19 nM.

B4: N^ε16-[(4S)-4-carboxy-4-[[(4S)-4-carboxy-4-[[2-[2-[2-[[(4S)-4-carboxy-4-[[(4S)-4-carboxy-4-(17-carboxyheptadecanoylamino)butanoyl]amino]butanoyl]amino]ethoxy]et … (peptide)
peptide: H[Aib]QGTFTSDLSKYLDK([γGlu-γGlu-AEEA-γGlu-γGlu-C18 diacid])RRAQEFVQWLLNT-NH2
modifications: N-terminus assumed
SMILES: CC(C)C[C@H](NC(=O)[C@H](Cc1ccc(O)cc1)NC(=O)[C@H](CCCCN)NC(=O)[C@H](CO)NC(=O)[C@H](CC(C)C)NC(=O)[C@H](CC(=O)O)NC(=O)[C@H](CO)NC(=O)[C@@H](NC(=O)[C@H](Cc1ccccc1)NC(=O)[C@@H](NC(=O)CNC(=O)[C@H](CCC(N)=O)NC(=O)C(C)(C)NC(=O)[C@@H](N)Cc1c[nH]cn1)[C@@H](C)O)[C@@H](C)O)C(=O)N[C@@H](CC(=O)O)C(=O)N[C@@H](CCCCNC(=O)CC[C@H](NC(=O)CC[C@H](NC(=O)COCCOCCNC(=O)CC[C@H](NC(=O)CC[C@H](NC(=O)CCCCCCCCCCCCCCCCC(=O)O)C(=O)O)C(=O)O)C(=O)O)C(=O)O)C(=O)N[C@@H](CCCNC(=N)N)C(=O)N[C@@H](CCCNC(=N)N)C(=O)N[C@@H](C)C(=O)N[C@@H](CCC(N)=O)C(=O)N[C@@H](CCC(=O)O)C(=O)N[C@@H](Cc1ccccc1)C(=O)N[C@H](C(=O)N[C@@H](CCC(N)=O)C(=O)N[C@@H](Cc1c[nH]c2ccccc12)C(=O)N[C@@H](CC(C)C)C(=O)N[C@@H](CC(C)C)C(=O)N[C@@H](CC(N)=O)C(=O)N[C@H](C(N)=O)[C@@H](C)O)C(C)C
As to B4, the “EC50 GLP-1R” value in experiment [1] turned out to be 0.0266 nM. Moreover, the “EC50 GlucR” value in experiment [2] is 0.0588 nM. Further, the IC50 in experiment [3] amounted to 1.4 nM; in experiment [4] it was 5.9 nM.
